Laboratory results taken from patent publication US20220289857A1.

Molecular target: human Fn14 (full length) on cells (human) (UniProt Q9NP84)
Assay: cell-based or functional assay

Chain of human Fn14 (full length) on cells (human) (Q9NP84 28-129): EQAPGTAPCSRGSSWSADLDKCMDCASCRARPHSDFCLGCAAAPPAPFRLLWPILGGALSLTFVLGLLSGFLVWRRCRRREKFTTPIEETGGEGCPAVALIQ

B1: ITEM-4 commercial anti-Fn14 monoclonal antibody (antibody, from another filing, V domains shown)
VH: QVQLQQSGPELVKPGASVKMSCKASGYTFTDFIIAWVKQRTGQGLEWIGEIYPGTGRTYYSEKFRGKATLTADKSSNTAYMQLSSLTSVDSAVYFCARRTIYYDYDGDYWGQGTTLTVSS
VL: DIVMTQAAFSNPVTLGTSASISCRSSKSLLHSNGITYLYWYLQKPGQSPQLLIYQMSNLASGVPDRFSSSGSGTDFTLRISRVEAEDVGVYYCAHNLELPWTFGGGTKLELK
- ICAM-1 MFI on HRMC, 250 ng/mL rhTWEAK, mAb 0.1 µg/mL: 9620 MFI
